# According to the RNAGym collection of RNA variant scans (doi:10.7554/elife.80360):
# B1: Hammerhead Ribozyme (parent)
# chain: ACCGGAUGUGCUUUCCGGUCUGAUGAGUCCGUGAGGACGAAACAG
# Variants of: B1
# Experiment: self-cleavage, relative activity (ratio to wild type); higher = more cleavage; co-transcriptional
row,Variant,self-cleavage
1,C3G A42C,0.31
2,C3G A42U,0.23
3,C3A G36C,0.338
4,C3A G36U,0.283
5,C3A G36A,0.287
6,C2U U24G,1.29
7,C2U U24A,1.05
8,C2U U24C,1.35
9,C2U C16U,1.07
10,C2U C16A,0.367
11,C2U C16G,0.356
12,C3A A23U,0.28
13,C3A A23C,0.352
14,C3A A23G,0.296
15,C2U U19C,0.531
16,C2U U19A,0.365
17,C2U U19G,0.319
18,C3A U24A,0.811
19,C3A U24C,0.94
20,C3A U24G,0.574
21,C3A G17A,0.634

row,Variant,self-cleavage
1,C3A G17U,0.874
2,C3A G17C,0.708
3,C3A G39A,0.277
4,C3A G39U,0.235
5,C3A G39C,0.282
6,C3G C30U,0.636
7,C3G C30G,0.273
8,C3G C30A,0.353
9,C3G U9G,0.407
10,C3G U9A,0.411
11,C3G U9C,0.574
12,C2U C43A,0.361
13,C2U C43U,0.441
14,C2U C43G,0.372
15,C3A U19G,0.296
16,C3A U19C,0.277
17,C3A U19A,0.316
18,C3A U21G,0.358
19,C3A U21A,0.37
20,C3A U21C,0.376
21,C3G U13G,0.628

row,Variant,self-cleavage
1,C3G U13C,0.655
2,C3G U13A,1.02
3,C3G G18A,0.323
4,C3G G18C,0.335
5,C3G G18U,0.535
6,C2U U14G,1.11
7,C2U U14A,0.8
8,C2U U14C,0.474
9,C3A G31C,0.791
10,C3A G31A,0.912
11,C3A G31U,1.05
12,C3A G22A,0.308
13,C3A G22C,0.285
14,C3A G22U,0.291
15,C3G G45A,0.371
16,C3G G45U,0.374
17,C3G G45C,0.35
18,C3A G45U,0.448
19,C3A G45A,0.358
20,C3A G45C,0.355
21,C3A A37G,0.539

row,Variant,self-cleavage
1,C3A A37C,0.354
2,C3A A37U,0.388
3,C3G A34U,0.389
4,C3G A34C,0.422
5,C3G A34G,0.409
6,C3G C38U,0.37
7,C3G C38G,0.279
8,C3G C38A,0.279
9,C3A G10U,0.921
10,C3A G10A,0.897
11,C3A G10C,0.587
12,C3G A23U,0.242
13,C3G A23G,0.257
14,C3G A23C,0.328
15,C3G G22A,0.304
16,C3G G22U,0.276
17,C3G G22C,0.292
18,C3A G27U,0.305
19,C3A G27C,0.422
20,C3A G27A,0.365
